Assay results taken from PMC8095197 (bioRxiv, 2021).

Molecular target: SARS-CoV-2 spike (SARS-CoV-2, reference (Wuhan-Hu-1) …, UniProt P0DTC2)
Test: ELISA

B1: DH1047 IgG (antibody, V domains shown)
VH: QVQLVQSGAEVKKPGASVQVSCQASANTFTNHYIHWVRQAPGQGLEWMGIIYPTGGNTIYAQGFQGRVTMTRDTSLNTIYLELSSLRSEDTAVYYCARDVRVDDSWSGYDLLSGGTYFDYWGQGTLVTVSS
VL: not shown
B1: binds.
